Source: paper PMC3072069

Experiments:
[1] = target: T1, CFP1 CXXC domain (Homo sapiens, UniProt Q9P0U4 161-222); assay: ITC
[2] = target: T1, CFP1 CXXC domain; assay: crystal structure
[3] = target: CFP1 CXXC domain, longer construct (Homo sapiens, UniProt Q9P0U4 152-222); assay: ITC
[4] = target: CFP1 CXXC R213A (Homo sapiens, UniProt Q9P0U4 161-222, R213A); assay: ITC
[5] = target: CFP1 CXXC Y216A (Homo sapiens, UniProt Q9P0U4 161-222, Y216A); assay: ITC
[6] = target: T1, CFP1 CXXC domain; assay: EMSA

T1 sequence (Q9P0U4 161-222): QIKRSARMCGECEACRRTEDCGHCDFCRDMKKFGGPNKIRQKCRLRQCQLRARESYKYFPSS
Chain of CFP1 CXXC Y216A (Q9P0U4 161-222 Y216A): as the sequence (Q9P0U4 161-222) above, with Y56A counted along it
Chain of CFP1 CXXC R213A (Q9P0U4 161-222 R213A): as the sequence (Q9P0U4 161-222) above, with R53A counted along it
Chain of CFP1 CXXC domain, longer construct (Q9P0U4 152-222): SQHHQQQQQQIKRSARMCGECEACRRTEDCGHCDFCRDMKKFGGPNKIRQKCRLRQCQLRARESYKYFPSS

Binder | Kd [1] | binding result [2] | other results
CCGG2 (dsDNA) DNA 1: GCCCCCGGGGGC DNA 2: GCCCCCGGGGGC | 4.4 ± 0.3 µM | – | –
ACGG (dsDNA) DNA 1: GCCAACGGTGGC DNA 2: GCCACCGTTGGC | 2.5 ± 0.2 µM | – | –
TCGA (dsDNA) DNA 1: GCCATCGATGGC DNA 2: GCCATCGATGGC | – | binds | –
GCGG (dsDNA) DNA 1: GCCAGCGGTGGC DNA 2: GCCACCGCTGGC | 3 ± 0.2 µM | – | –
TCGT (dsDNA) DNA 1: GCCATCGTTGGC DNA 2: GCCAACGATGGC | – | binds | –
CCGG1 (dsDNA) DNA 1: GCCACCGGTGGC DNA 2: GCCACCGGTGGC | 3.5 ± 0.3 µM | – | Kd [3]: 2.7 ± 0.3 µM; Kd [4]: 179 ± 30 µM; Kd [5]: 11 ± 2 µM
ACGT (dsDNA) DNA 1: GCCAACGTTGGC DNA 2: GCCAACGTTGGC | – | binds | –
GC (GGCC), no CpG (dsDNA) DNA 1: GCCAGGCCTGGC DNA 2: GCCAGGCCTGGC | – | – | binding result [6]: no binding
